Experimental data: the DeepSol protein solubility set

Test: soluble on expression in E. coli; label from the status in PepcDB or PDB records
With “MGSDKIHHHHHHLITIENSKFKAGIAERGAELQSLVNKADNYEYVWTGDKTFWNRHAPILFPSIGKSNQDQYRLGAKTYPMSQHGFARDYDFDVSDKSDSAVTFTQHQNAETLKKFPFEYTLAVTYMLTDGGLSVHYTVTNDDSKSMPFALGFHPAFNVGLKADGSFDDYDLTVEPLNSPLQRFGIGPVPFRNGDVEDIPGAEGNRLPLTHDLLDGGLVILANSEIAKATLASPHHDHSITLDISDFPYLTIWSPEHKKAPFIAVEPFDGLPDQAGEPTDWYTKLGNTTLSAGANKQLALKVELH” the “soluble on expression in E. coli” value was “not soluble”. In the case of “MGSDKIHHHHHHLKPNNNTNKGVDYWTNRISELEMPALCSTVKSLEKLAKDDVSSLALLGRSVMHDNALTSRILRVANSAIYHKGSSQISTVSRAAIVLGFDAVRNICITAKLLSSLLESKNLAPNVYQRLIKLMAKAFQAAMIARMMLSHHDEEMQEEAFIASLLYHIGESAFWSIGGEFTEELDLTLCQCETPAEERSATREALGASFLQLTQSIARNWGLGELLIQALNYPEDQRPDIRAIFLADKLCDILSQPVLDKLELAKRMTQAAIFTGLEEKEFLVRMQRCANATHKLAEVYGAKVLLDYLPDPKRIVAAEPDLPPIPLDMPVYQVNLNIQLAKLRELTGFAINKADFNQIMQTVLEGILEGVGVDRCGVLLLSPSRKQLQPRVILGRDADAIKQEFIIDLSDKRGLFHQAMEHKAPLWVDDPSSKNGRSSARSCKRGTCHGRAFYWRLCWLIAK”, the “soluble on expression in E. coli” value is reported as “not soluble”. With “MGSDKIHHHHHHLKVLMYSISLAYMIRNLPYASLRAFEAVVRLGSFSAAAGDLGVSQSAVSQHVKSLEEWLGQELLVRGARASKGTRYGTLLAREIDRGLGGISEVCTQIRAASHSDTTVVISCLPGFAFTWLFPRLLRFDLAHPDLSISIATDTGGRPFNPADADIGIRYGHGEFPNLRVDHLMGERLFPVCAPQVAERLTDVASLGQHTLLQDEILNFGSANPSWEYWAEACGVHLPSRARTRRFGQSNLVLQAAIEGLGVALGREPLVLDALTDGRLVRPFTQNVKSPLSYWLVRRKQADDSPKVQEFLKWIKKEAETQPDIPASLNKFA” the “soluble on expression in E. coli” value was “not soluble”. For “MGSDKIHHHHHHLLASGLEYSHHMSPDAMVEDITRLVEIWVTGWAGCRGYETRTEGRFPAALRADTTKEWEYFAHDPSDTEFAELAAKTAEAPARILTILTNDVARYTYLAQQHGLNVTSASQTMMIVDMETRDSEDPWLSDDDLKLTTFKKDGVHHAVVNAGESVAASGRVFVVGHTAVFDKIVTEPAYQRRGLGSFIMKALAAQAFEHDVENGLLLASLDGQKLYSHLGWTTLCHVLMLSSSNEGADLSVG”, the “soluble on expression in E. coli” value was “not soluble”. For “MGSDKIHHHHHHLLQRTFNIQHHSSLPLLSILSYFPTSLLKPGGRMAIVLPQGRFNNSSDKNIRDFIAERCRILAVVGLHGNTFKPHTGTKTSVLFVQKWNDDPKAGALCPRQDDYNIFFATMRKSGKDNSGDKIWRKISSSTASPPDDELSDLMPPSPVQRVVGVEGDFLRDNHEHLVVDHDLYNHEGKTEDGIAEAFIEFAKKENFSFFELSPSVTPFDAVKYQQLMDGLEAVEVSLNQALDHNLHFRFDSEFFKRIYFQVEAEIKALPHTRLSSTQPIIIHPTEIKREYVEDDSSGVLFFRTQNLRPLRVDLSNQVYISEEDAAKLSKNIIQKNDVLITITGANFGDTLIFKGEIEAIALSHVFILRNKKISQSFLAVFLNTFYGREQINKGMYGGV”, the “soluble on expression in E. coli” value was “not soluble”. With “MGSDKIHHHHHHLSITKPHTTVLLTGATGNWGRATLRELSSRSDRVTVLVLSLPGEKDKAVLSEFSAMENLDVVWGDLTDYATVATCVARADVVLHVGAVVSPLADEQPELATRVNVGSMRNIIRAVKAQPDPSRIRVVGVGSVAQTGNRNPPLHWGRVGDPIRVSRFDAYGQSKVTAERELVEAGLPTWVWLRQTGIFHPGMLEIRDPIMTHSPFAGVMEWVSAQDSARLLANLCEPDVPGELWGGVYNIGGGEGWRLSNWQLQTAIGQAVGVKDIRKWYDRNWFALKNFHGQWYTDSDRLHALVPFRQDTFESALARALATAPSSVRNAGKVPAWIVKHLVMKPLSRKPRGTMAAIRSGTDQEVSAHFGSLPEWRSIGDWSTFEPPAPSRTPSYLDHGYDENKPASEWSAIDYLEAAAFRGGRLLTEDVNPGLPSAPLMWSCGAGHEFAASPRLVLQAGHWCPACTADPAGYDRQAEHNKFLAQVIDA” the “soluble on expression in E. coli” value was “not soluble”. With “MGSDKIHHHHHHLTTVLNASPQRFVNTPAVQRIAQRALRYLQSGFSIHLRGAAGVGKTTLAMHLADLLNQPIILLFGDDEFKTSDLIGNQLGYTRKKVVDNFIHSVIKVEDEVRQHWVDARLTLACKEGFTLVYDEFNRSHPEVNNVLLSVLEERLLVLPTNQHRAEYIRVHPQFRAILTSNPQEYCGVHATQDALMDRVITIDMPTPDELSQQEIVVHKTGIDSEKAEVIVRIVRTFWSRSGSGQGGGLRSCLMIAKICHEHEISVNPGDPSFQDICADILLSRTNQPLIEATRLLEEVLSEFYHRINTQSQPSEIIPNNQNQIVLEQRVPYEHEVYNYLCNSPGRRFSELAVELGIDRSQIVAALKSLREQGVLVQMQGNAESPSISQTVAFDSGHLINK” the “soluble on expression in E. coli” value was “not soluble”. For “MGSDKIHHHHHHLTYDEIKKNKEVCECLKKGNENLGVLGFTDHSVAHCTMVAKRAAYILKKFGYSESDIEMVKIAGFMHDIGNVVNRSRHAEYGAILANEILKETDMSLKDRITVVSAIGHHDESTGGATDPISAALIIADKTDVRRNRVRNKAKENFDIHDRVNYAVTDAALKINMDKKVIALNLQIDTKICSMYEYFEIFLGRMMMCRGAAEVLGATFKLTANGSKVL”, the “soluble on expression in E. coli” value was “not soluble”. In the case of “MGSDKIHHHHHHLYFLDNQLAQQIVDRTMAIIGHNINVMNSQGVILGSGEPHRIGSTHEGALLAISQNRTVELNSASAASLQGVKPGINLPLHYQGEIIGVIGITGEPEHLKAFGELLKMTAEMIVEQANSLDVAQWRARQQEEFILQLIKPEGRDLNHLKIWAQRLDIDLEMPRVAAVLRISDDAGDELANSQLKTVLHLLETPSRGNLIAMTSMTELVILKPAFLDGKAWSAEAESLRIDRLLKRLPSELNARLKISLGHYFPATMDINRSYQTALETLNFGQQLHPEQSKYLYEDHALLVMLSGLKHDWRGEQLLRPFQRLIDRDKNALLRKTLASYLGHFGDQQACAKALFIHRNTLRYRLDKIAQITKVDIQKLDGLLQLYLGQVLLSRGQDQG”, the “soluble on expression in E. coli” value is reported as “not soluble”. With “MGSDKIHHHHHHLYNQPEVALEKYELTVSRIIKGRGAYICDTGIGQKLLVPYRGHEQRACTLRDTLAFIQRNGMDVEQISQTKEQCIISRDNCEDAYILKDYRAGRECSTDSIDDMRGGSRALAQLHNILEKYPLPSDIEVESLYEKAQRKCAQIVKLKNYILRRSKTNAFEHLFYECYERFLEQGQKSAEILCELENSKTSVPIYCHGAFNQHNVVYTQSGRWLPVNFETMHPGYPETDLAEYMRKMLEKNHWDTAVADAILDSYCSVRSLDDTSMRLLQALLLFPEKFCKLCNHYSNSRKSWVCDRDVDKLAQLIQLSGEREEYLHALQAIV” the “soluble on expression in E. coli” value was “not soluble”. For “MGSDKIHHHHHHMAALENKIDFAIAFAVNNANPNGDPLNGNRPRTTSEGLGEVSDVALKRKIRNRLQDAGESVFVQSDDRSDDGAKSLSDRFNTYLKTLPKDEQKQKNVVFGKVCERWLDVRSFGQVFAFKKAKDTDEVSIGVRGPVSIQPAFSINPIAIDDVQITKSVNSETTDSGKKSSDTMGMKYRVSGRAVYVTYGSISPQLAERTGFSAEDAEKIKEALVTLFENDESSARPSGSMEVLDVVWFAHNCKGGQYSSAKVHRSVSVDADGTVNVDDASIPGLRYEVIEGR”, the “soluble on expression in E. coli” value was “not soluble”. With “MGSDKIHHHHHHMADGTSLSIDAKPTEEFSVREVFGIDTDMKVKGFAEPTDRVPAIDPTYKFDPDTTLAILAGYGYNRRVMVQGYHGTGKSTHIEQVGARLNWPTVRVNLDSHISRIDLIGKDAIKLRDGKQVTEFHEGILPWALRNPVAIVFDEYDAGRADVMFVIQRVLETDGKLTLMDQNEIITPNPCFRLFATANTVGLGDTTGLYHGTQQINQAQMDRWSLVATLNYLRHDAEVNIVLAKCPHYNTETGRKTMNQMVTVADLTRTAFMNGELSTVMSPRTVINWAQNAEIFRDVGYAFRVSFLNKCDELERQTVAEFYQRCFDEELPESAASMSLG” the “soluble on expression in E. coli” value was “not soluble”.
